Patent US7709606B2, “Interacting polypeptide comprising a heptapeptide pattern and a cellular penetration domain” (Ecole Normale Superieure de Lyon, priority 2003, dated 2010)
Where two headings read alike, the source gives them in different places.

Assays:
[1] = system: HIV-1-LA1; test: antiviral test in PHA-P activated PBMC, RT activity; type: cell-based; conditions: for anti-HIV activity, replication of HIV-1-LA1: PBMC activated by PHA-P, 7th day, in words; for Percentage inhibition, Mean: HIV-1 LA1, day 7
Experimental: (§1) These viruses were amplified in vitro with umbilical blood mononuclear cells (UBMC) activated with PHA-P. The cell-free supernatant was centrifuged at […] for 10 minutes to eliminate soluble factors, and the residue was re-suspended in cell culture medium. Virus stocks were titrated using PBMC cells activated with PHA-P and 50% tissue culture infectious doses (TCID50) were calculated using Kärber's formula.
PBMC cells were pre-treated for 30 minutes by 5 concentrations of each molecule and infected with 75 TCID50 of the HIV-1-LA1 strain. AZT (1.6, 8, 40, 200 and 1000 nM) and indinavir (1.6, 8, 40, 200 and 1000 nM) were used as the control. […] The molecules were maintained throughout culture, and the cellular supernatant was harvested 7 days post infection and stored at −20° C. to measure viral replication by reverse transcriptase activity (RT) assay.
(§2) HIV replication was analyzed by assaying the RT activity in the supernatants from cell cultures using the RetroSys RT kit (Innovagen). The experiments were carried out 3 times and the results are expressed as the mean of the RT activity±the standard deviation (SD).
In a last step, it was examined whether SHPs were actually capable of inhibiting HIV-1 replication. This was carried out in PBMCs activated by PHA-P and in MDMs. […] The effects of different SHPs was thus tested at this time. AZT and indinavir were used as controls.

[2] = system: Jurkat cells; test: intracellular entry, immunofluorescence in Jurkat cells; type: cell-based; conditions: 2 μM for one hour, analyzed 24 h later
Experimental: Light transmission and fluorescence images are shown for representative cells.
The immunofluorescence tests were carried out with a primary anti-FLAG antibody in a dilution of 1:500 incubated for 2 hours and a secondary antibody coupled to the Alexa Fluor 488 fluorophore (Molecular Probes) diluted 1:1000, incubated for one hour.
To confirm that SHPs do indeed enter the cell, immunofluorescence analyses were also carried out. Jurkat cells were incubated with 1 μM of SHP for 4 hours and after washing twice, the cells were cultured for 24 hours.

[3] = target: GST-Rev (Human immunodeficiency virus type 1 group M subtype B, UniProt P04618); conditions: eluted with glutathione, immunoblot
Experimental: GXT-Rev was produced in bacteria and loaded onto an agarose-glutathion column. […] After rinsing, the proteins were eluted with glutathione. An aliquot of the feed, rinse and elution fractions was analyzed by immunoblot for GST-Rev (top graph) and for SHP using antibodies against GST or against FLAG respectively.
The SHPR activity was evaluated using the reporter construct pDM128 which included the coding sequence CAT and an RRE motif in an intron. Expression of Rev stimulated expression of CAT allowing an unspliced messenger to be exported to the cytoplasm. […] It was verified whether this inhibition was in fact directly correlated with a protein-protein interaction as predicted. To this end, both Rev and the SHPRs were produced in bacteria. […] Rev was expressed in fusion with GST and coupled to glutathione-agarose beads.

[4] = system: HIV-1/Ba-L; test: antiviral test in monocyte-derived macrophages (MDM), RT activity; type: cell-based
Experimental: as §1
The MDM cells were pre-treated for 30 minutes in 6 concentrations of different molecules and infected with 30000 TCID50 of the HIV-1/Ba-L strain. AZT (0.8, 4, 20, 100 and 500 nM) and indinavir (0.8, 4, 20, 100 and 500 nM) were used as the control. […] The molecules were maintained for 7 days post infection, and the cellular supernatant was harvested 7, 14 and 21 days post infection and stored at −20° C. to measure viral replication by reverse transcriptase activity (RT) assay.
as §2

[5] = target: T1, Tat (Human immunodeficiency virus type 1 group M subtype B, UniProt P04608); test: Tat functional test, LTR HIV-CAT reporter in HeLa cells; type: cell-based, HIV-1; conditions: higher concentrations
T1 construct: expressed in transfected cells; host or cells: HeLa
Experimental: The effect of the 4 SHPTs on the transactivation of the HIV-1 promoter by Tat was evaluated by transitory expression experiments in HeLa cells.

[6] = target: Rev/RRE association (Human immunodeficiency virus type 1 group M subtype B, UniProt P04618); conditions: Rev produced in bacteria, RRE RNA probe
Experimental: To this end, gel retard experiments were carried out with a RNA molecule corresponding to the RRE element as the probe. The Rev protein produced in bacteria binds to this RNA and induces a non denaturing polyacrylamide gel migration retardation.

[7] = target: LexNES (NES of Rev) (Human immunodeficiency virus type 1 group M subtype B, UniProt P04618); conditions: in words; method not stated
[8] = target: Rev (Human immunodeficiency virus type 1 group M subtype B, UniProt P04618); conditions: HeLa cells
Experimental: This type of indicative construct allowed an evaluation of the effect of Rev, which by causing transport towards the cytoplasm of the non spliced RNA, allowed expression of the CAT enzyme.
The CAT activity was measured using the CAT ELISA kit (Roche).
These various mutants were tested using a transitory expression system consisting of transfecting HeLa cells of the reporter plasmid having the CAT sequence associated with the RRE in the intronic position with expression vectors for the Rev protein and the SHPR protein. […] The separation between the two values was less than 20%.
These vectors were transfected with the reporter plasmid pDM128 and the expression vector Rev as described in the above sections (and in Roisin et al, JBC (2004) 279: 9208). The quantity of CAT protein is expressed as a % of that corresponding to transfection of parental SHPR. A value of more than 100 thus indicates a negative effect on the inhibiting power of SHPR and a lower value indicates an increase in this inhibiting property.

[9] = MDMs, HIV-1/Ba-L, Day 7, dose 62.5 (nM)
[10] = MDMs, HIV-1/Ba-L, Day 7, dose 125 (nM)
[11] = MDMs, HIV-1/Ba-L, Day 7, dose 250 (nM)
[12] = MDMs, HIV-1/Ba-L, Day 7, dose 500 (nM)
[13] = MDMs, HIV-1/Ba-L, Day 7, dose 1000 (nM)
[14] = MDMs, HIV-1/Ba-L, Day 7, dose 2000 (nM)
[15] = MDMs, HIV-1/Ba-L, Day 14, dose 62.5 (nM)
[16] = MDMs, HIV-1/Ba-L, Day 14, dose 125 (nM)
[17] = MDMs, HIV-1/Ba-L, Day 14, dose 250 (nM)
[18] = MDMs, HIV-1/Ba-L, Day 14, dose 500 (nM)
[19] = MDMs, HIV-1/Ba-L, Day 14, dose 1000 (nM)
[20] = MDMs, HIV-1/Ba-L, Day 14, dose 2000 (nM)
[21] = MDMs, HIV-1/Ba-L, Day 21, dose 62.5 (nM)
[22] = MDMs, HIV-1/Ba-L, Day 21, dose 125 (nM)
[23] = MDMs, HIV-1/Ba-L, Day 21, dose 250 (nM)
[24] = MDMs, HIV-1/Ba-L, Day 21, dose 500 (nM)
[25] = MDMs, HIV-1/Ba-L, Day 21, dose 1000 (nM)
[26] = MDMs, HIV-1/Ba-L, Day 21, dose 2000 (nM)

Sequence of LexNES (NES of Rev) (P04618 70-96): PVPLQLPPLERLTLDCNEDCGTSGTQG
T1 sequence (P04608 whole entry): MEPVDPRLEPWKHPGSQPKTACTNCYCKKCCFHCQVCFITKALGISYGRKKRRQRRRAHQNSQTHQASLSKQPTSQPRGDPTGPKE

B1: SHPT-8: SUMO-1-heptapeptide-Tat PTD protein selected against Tat; heptapeptide Phe Thr Met Arg Gly Val Asp (SEQ ID NO: 38) (protein)
chain: MSDQEAKPSTEDLGDKKEGEYIKLKVIGQDSSEIHFKVKMTTHLKKLKESYCQRQGVPMNSLRFLFEGQRIADNHTPKELGMEEEDVIEVYQEQTARPPNPKKEIELGGGGSFTMRGVDPGRKKRRQRRRG
- anti-HIV activity, replication of HIV-1-LA1 [1]: did not have any anti-HIV activity
- Percentage inhibition, Mean ([1]; PBMCs, Dose 31 (nM)): 0%
- Percentage inhibition, Mean ([1]; PBMCs, Dose 62.5 (nM)): 0%
- Percentage inhibition, Mean ([1]; PBMCs, Dose 125 (nM)): 0%
- Percentage inhibition, Mean ([1]; PBMCs, Dose 250 (nM)): 0%
- Percentage inhibition, Mean ([1]; PBMCs, Dose 500 (nM)): 0%
- Percentage inhibition, Mean ([1]; PBMCs, Dose 1000 (nM)): 0%
- Percentage inhibition, Mean ([1]; PBMCs, Dose 2000 (nM)): 0%
- immunofluorescence with antibody against FLAG [2]: diffuse fluorescence
- co-elution with GST-Rev [3]: no SHPT was present in fractions containing GST-Rev
- co-elution with GST-Rev ([3]; listed as SHPR-8): did not bind to the protein on the column
- inhibition of HIV replication ([4]; MDM, 2 μM on day 14): 69±6%
- Percentage inhibition, Mean [4, 9]: 5%
- Percentage inhibition, Mean [4, 10]: 39%
- Percentage inhibition, Mean [4, 11]: 78%
- Percentage inhibition, Mean [4, 12]: 78%
- Percentage inhibition, Mean [4, 13]: 70%
- Percentage inhibition, Mean [4, 14]: 84%
- ED70 ([4]; MDMs, HIV-1/Ba-L, Day 14): 2.05 µM
- ED90 ([4]; MDMs, HIV-1/Ba-L, Day 14): 5.5 µM
- Percentage inhibition, Mean [4, 15]: 0%
- Percentage inhibition, Mean [4, 16]: 2%
- Percentage inhibition, Mean [4, 17]: 55%
- Percentage inhibition, Mean [4, 18]: 50%
- Percentage inhibition, Mean [4, 19]: 46%
- Percentage inhibition, Mean [4, 20]: 69%
- Percentage inhibition, Mean [4, 21]: 0%
- Percentage inhibition, Mean [4, 22]: 5%
- Percentage inhibition, Mean [4, 23]: 37%
- Percentage inhibition, Mean [4, 24]: 21%
- Percentage inhibition, Mean [4, 25]: 20%
- Percentage inhibition, Mean [4, 26]: 59%
- Tat transactivation of the HIV-1 promoter [5]: slight reduction in transactivation
- effect on Rev/RRE association (gel retardation) [6]: no particular effect

B2: SHPR-142: SUMO-1-heptapeptide-Tat PTD protein against Rev; heptapeptide Phe Trp Phe Cys Gly Leu Lys (SEQ ID NO: 2) (protein)
chain: MSDQEAKPSTEDLGDKKEGEYIKLKVIGQDSSEIHFKVKMTTHLKKLKESYCQRQGVPMNSLRFLFEGQRIADNHTPKELGMEEEDVIEVYQEQTARPPNPKKEIELGGGGSFWFCGLKPGRKKRRQRRRG
modifications: left off: small tags and cut ends
- anti-HIV activity, replication of HIV-1-LA1 [1]: reduced replication
- reduction of HIV-1 replication ([1]; PBMC activated with PHA-P, 2 μM): 73±6%
- ED70 ([1]; PBMCs, HIV-1-LA1, 7th day): 2.1 µM
- ED90 ([1]; PBMCs, HIV-1-LA1, 7th day): 4.6 µM
- Percentage inhibition, Mean ([1]; PBMCs, Dose 31 (nM)): 0%
- Percentage inhibition, Mean ([1]; PBMCs, Dose 62.5 (nM)): 0%
- Percentage inhibition, Mean ([1]; PBMCs, Dose 125 (nM)): 0%
- Percentage inhibition, Mean ([1]; PBMCs, Dose 250 (nM)): 0%
- Percentage inhibition, Mean ([1]; PBMCs, Dose 500 (nM)): 19%
- Percentage inhibition, Mean ([1]; PBMCs, Dose 1000 (nM)): 26%
- Percentage inhibition, Mean ([1]; PBMCs, Dose 2000 (nM)): 73%
- immunofluorescence with antibody against FLAG [2]: diffuse fluorescence
- interaction with the NES signal of Rev [7]: interacts with Rev NES
- inhibition of HIV replication ([4]; MDM, 1 μM): not effect
- inhibition of HIV replication ([4]; MDM, 2 μM on day 14): 44±10%
- anti-HIV activity, HIV-1/Ba-L replication ([4]; MDM, in words): slight inhibition of HIV replication
- Percentage inhibition, Mean [4, 9]: 0%
- Percentage inhibition, Mean [4, 10]: 0%
- Percentage inhibition, Mean [4, 11]: 0%
- Percentage inhibition, Mean [4, 12]: 0%
- Percentage inhibition, Mean [4, 13]: 3%
- Percentage inhibition, Mean [4, 14]: 35%
- Percentage inhibition, Mean [4, 15]: 0%
- Percentage inhibition, Mean [4, 16]: 0%
- Percentage inhibition, Mean [4, 17]: 0%
- Percentage inhibition, Mean [4, 18]: 0%
- Percentage inhibition, Mean [4, 19]: 0%
- Percentage inhibition, Mean [4, 20]: 44%
- Percentage inhibition, Mean [4, 21]: 0%
- Percentage inhibition, Mean [4, 22]: 0%
- Percentage inhibition, Mean [4, 23]: 0%
- Percentage inhibition, Mean [4, 24]: 0%
- Percentage inhibition, Mean [4, 25]: 0%
- Percentage inhibition, Mean [4, 26]: 18%
- inhibition of the function of Rev (CAT from pDM128) [8]: effective inhibitors of the function of Rev
- effect on Rev/RRE association (gel retardation) [6]: did not inhibit this association
